Measured values taken from the supplement of paper PMC9112550, “Optimization of the antimicrobial peptide Bac7 by deep mutational scanning” (BMC Biology, 2022).

What follows are sequences tested on Escherichia coli TOP10 (assay: shrunken log2 fold change of peptide-encoding DNA abundance (4.5 h post-induction vs induction); higher = less antimicrobial activity (less host growth inhibition)). Conditions: time post-induction: 4.5 h; library: site-saturation at positions 5, 18, 19, 20.
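Also: peptides expressed intracellularly from a pBAD plasmid library in pooled LB shake-flask culture, induced with 0.3% L-arabinose, DNA abundance read by NGS, three biological replicates, DESeq2 with apeglm shrinkage.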

Sequence | shrunken log2 fold change
RRIRERPPRLPRPRPRPYSNPRP | -0.905
RRIRNRPPRLPRPRPRPQNNPRP | -0.734
RRIRKRPPRLPRPRPRPWAAPRP | 0.473
RRIRRRPPRLPRPRPRPFISPRP | 0.0236
RRIRVRPPRLPRPRPRPQYMPRP | -0.554
RRIRHRPPRLPRPRPRPHWLPRP | -0.123
RRIRFRPPRLPRPRPRPLEDPRP | -0.0439
RRIRQRPPRLPRPRPRPQPLPRP | -0.0826
RRIRTRPPRLPRPRPRPRWCPRP | 0.109
RRIRERPPRLPRPRPRPARLPRP | 0.361
RRIRVRPPRLPRPRPRPHNNPRP | -0.652
RRIRLRPPRLPRPRPRPYAMPRP | -0.226
RRIRDRPPRLPRPRPRPMDQPRP | 0.326
RRIRTRPPRLPRPRPRPARPPRP | 0.883
RRIRSRPPRLPRPRPRPAFHPRP | -0.0038
RRIRARPPRLPRPRPRPWRLPRP | 0.466
RRIRIRPPRLPRPRPRPDRKPRP | -0.0167
RRIRDRPPRLPRPRPRPWWTPRP | -0.327
RRIRVRPPRLPRPRPRPPNAPRP | 0.295
RRIRGRPPRLPRPRPRPHNIPRP | -0.386
RRIRTRPPRLPRPRPRPNGVPRP | -0.0427
RRIRQRPPRLPRPRPRPGNPPRP | -0.132

Sequence | shrunken log2 fold change
RRIRTRPPRLPRPRPRPQTTPRP | 0.0779
RRIRARPPRLPRPRPRPVSTPRP | -0.0272
RRIRFRPPRLPRPRPRPYKLPRP | -0.438
RRIRYRPPRLPRPRPRPNRKPRP | -0.284
RRIRWRPPRLPRPRPRPLRYPRP | -0.0913
RRIRLRPPRLPRPRPRPFHFPRP | -0.58
RRIRVRPPRLPRPRPRPESWPRP | 0.28
RRIRKRPPRLPRPRPRPHKPPRP | -0.0045
RRIRLRPPRLPRPRPRPAVIPRP | -0.339
RRIRGRPPRLPRPRPRPDDTPRP | 0.944
RRIRDRPPRLPRPRPRPEHIPRP | -0.193
RRIRPRPPRLPRPRPRPVSPPRP | 0.0647
RRIRKRPPRLPRPRPRPDTIPRP | 0.163
RRIRQRPPRLPRPRPRPYMHPRP | -0.512
RRIRNRPPRLPRPRPRPTGTPRP | 0.0526
RRIRFRPPRLPRPRPRPFKSPRP | 0.0901
RRIRARPPRLPRPRPRPIEKPRP | 0.15
RRIRQRPPRLPRPRPRPSQPPRP | -0.267
RRIRVRPPRLPRPRPRPPHDPRP | 0.65
RRIRRRPPRLPRPRPRPMNRPRP | -0.321
RRIRVRPPRLPRPRPRPNGEPRP | 0.0914
RRIRDRPPRLPRPRPRPWMYPRP | -0.267

Sequence | shrunken log2 fold change
RRIRPRPPRLPRPRPRPFIRPRP | 0.00477
RRIRCRPPRLPRPRPRPVSLPRP | -0.379
RRIRWRPPRLPRPRPRPTSYPRP | -0.103
RRIRMRPPRLPRPRPRPYVIPRP | -0.125
RRIRPRPPRLPRPRPRPWKHPRP | -0.19
RRIRLRPPRLPRPRPRPKFHPRP | -0.174
RRIRQRPPRLPRPRPRPYINPRP | -0.299
RRIRLRPPRLPRPRPRPFFGPRP | 0.246
RRIRERPPRLPRPRPRPQVEPRP | 0.0218
RRIRHRPPRLPRPRPRPQKTPRP | 0.00246
RRIRRRPPRLPRPRPRPNCWPRP | 0.228
RRIRMRPPRLPRPRPRPQFTPRP | 0.095
RRIRTRPPRLPRPRPRPIKCPRP | -0.234
RRIRWRPPRLPRPRPRPMVIPRP | -0.14
RRIRARPPRLPRPRPRPKHIPRP | -0.219
RRIRNRPPRLPRPRPRPHWPPRP | 0.0957
RRIRQRPPRLPRPRPRPHKVPRP | -0.481
RRIRYRPPRLPRPRPRPRESPRP | 0.0662
RRIRNRPPRLPRPRPRPKGFPRP | -0.0324
RRIRKRPPRLPRPRPRPGVQPRP | 0.228
RRIRLRPPRLPRPRPRPPIFPRP | -0.0913
RRIRMRPPRLPRPRPRPFWQPRP | 0.341

Sequence | shrunken log2 fold change
RRIRFRPPRLPRPRPRPLDMPRP | -0.372
RRIRPRPPRLPRPRPRPDLSPRP | 0.158
RRIRERPPRLPRPRPRPLVQPRP | 0.0736
RRIRPRPPRLPRPRPRPCTGPRP | -0.00227
RRIRHRPPRLPRPRPRPMSRPRP | -0.0252
RRIRQRPPRLPRPRPRPLCPPRP | -0.334
RRIRERPPRLPRPRPRPTEPPRP | 0.0207
RRIRKRPPRLPRPRPRPLAFPRP | 0.278
RRIRGRPPRLPRPRPRPNKVPRP | 0.0962
RRIRERPPRLPRPRPRPIDMPRP | -0.123
RRIRARPPRLPRPRPRPHILPRP | -0.207
RRIRVRPPRLPRPRPRPFMWPRP | -0.327
RRIRLRPPRLPRPRPRPDPGPRP | -0.146
RRIRDRPPRLPRPRPRPAEFPRP | 0.149
RRIRHRPPRLPRPRPRPLRIPRP | 0.156
RRIRQRPPRLPRPRPRPDFGPRP | 0.0964
RRIRQRPPRLPRPRPRPKLKPRP | -0.0236
RRIRPRPPRLPRPRPRPYFQPRP | -0.593
RRIRARPPRLPRPRPRPSIKPRP | -0.133
RRIRWRPPRLPRPRPRPGVCPRP | 0.681
RRIRCRPPRLPRPRPRPPIIPRP | -0.294
RRIRTRPPRLPRPRPRPKHLPRP | -0.233

Sequence | shrunken log2 fold change
RRIRGRPPRLPRPRPRPCYEPRP | 0.219
RRIRHRPPRLPRPRPRPHRPPRP | -0.133
RRIRDRPPRLPRPRPRPWPCPRP | 0.462
RRIRFRPPRLPRPRPRPFANPRP | -0.124
RRIRIRPPRLPRPRPRPDWMPRP | -0.131
RRIRHRPPRLPRPRPRPTSGPRP | -0.0493
RRIRCRPPRLPRPRPRPMCEPRP | -0.0476
RRIRTRPPRLPRPRPRPHAGPRP | -0.0835
RRIRWRPPRLPRPRPRPDGFPRP | -0.0231
RRIRIRPPRLPRPRPRPEVDPRP | -0.0435
RRIRDRPPRLPRPRPRPTWTPRP | -0.043
RRIRTRPPRLPRPRPRPGYIPRP | -0.288
RRIRRRPPRLPRPRPRPNWDPRP | -0.0988
RRIRKRPPRLPRPRPRPTGPPRP | 0.588
RRIRMRPPRLPRPRPRPQPMPRP | 0.838
RRIRVRPPRLPRPRPRPQNTPRP | -0.524
RRIRERPPRLPRPRPRPWAQPRP | -0.0813
RRIRCRPPRLPRPRPRPADDPRP | 0.116
RRIRRRPPRLPRPRPRPCWIPRP | 0.063
RRIRQRPPRLPRPRPRPEECPRP | -0.0135
RRIRNRPPRLPRPRPRPASWPRP | 0.369
